Reference: the nanobody polyreactivity screen of Harvey et al. (2022)

Experiment: yeast display, Sf9 membrane polyspecificity reagent, FACS + sequencing; frameworks hold sequencing errors
Method in brief: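 In a synthetic yeast display library (Saccharomyces cerevisiae BJ5465), nanobody expression was induced with galactose for 36–48 hours. FACS gates were set low and high (top ~1%) using anti-HA fluorescence for expression and streptavidin fluorescence for binding of the Sf9 membrane reagent. Each polyreactivity label is drawn from the gate of origin.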

Sequence | polyreactivity (PSR sort gate)
QVQLVESGGGLVQAGGSLRLSCAASGFIFGTNTMGWYRQEPGKERELVAAITSVGSTNYADSVKGRFTISRDNAKNTVYLLMNSLKPEDTAVYYCPATLYYQYGGDYWGQGTQVTVSS | low polyreactivity
QVQLVESGGGLVQAGGSLRLCCAASGRIFDYNAMGLYRQAPGKERELVAAINSGGSTYADSVKGRFTISRDNAKNTVYLQMNSLKPEDTAVYYCANSLGQTDWEYDSWGQGTQVTVSS | low polyreactivity
QVQLVESGGGLVQAGGSLRLSCAASGITFTGYAMGWYRQAPGKERELVAAITSGGGRTYYADSVKGRFTISRDNAKNTVYLQMNSLKPEDTAVYYCATRYVTIVGYDYWGQGTQVTVSS | high polyreactivity
QVQLVESGGGLVQAGGSLRLSCAASGRIRFNVMGWYRQAPGKERELVAAITGGGTTYYADSVKGRFTISRDNAKNTVYLQMNSLKPEDTAVYYCAARALYSRINQIPSYYWGQGTQVTVSS | high polyreactivity
QVQLVESGGGLVQAGGSLRLSCAASGSIFEIYDMGWYRQAPGKERELVASIRTSGGSTYYAESVKGRFTISRDNAKNTVYLLMNSLKPEDTAVYYCATGWSWYHPDYDYWGQGTQVTVSS | low polyreactivity
QVQLVESGGGLVQAGGSLRLSCAASGSTFTVNAMGWYRQAPGKDRELVADINWIGGATYYADSVKGRFTSSRDNAKNTVYLQMNSLKPEDTALYYCNADVWEYFTYSFTGFGWYDYWGQGTQVTVSS | high polyreactivity
QVQLVESGGGLVQAGGSLRLSCAASGRTFFRYAMGWYRQAPGKERELVAAISSSGGSSYYADSVKGRFTISRDNAKNTVYLQMNSLKPEDTAVYYCNRVYALTYYAKYGYDFWGQGTQVTVSS | high polyreactivity
QVQLVESGGGLVQAGGILRLSCASSGSIFVTFAMGWYRQAPGTEREFVAAINWIGGSTYYADSVKGRFTISRDNAKNTVYLQMNSLKPEDTAVYDCGKRYYRRYDYWGQGTQVTVSS | high polyreactivity
QVQLVESGGGLVQAGGSLSLSCAASGFTFSRYAMGWYRQAPGKERELVAAISDDGGSTYYADSVKGRFTISRDNAKNTVYLQMNSLKPEDTAVYYCAARFYWSYGYWGQGTQVTVSS | high polyreactivity
QVQLVESGGGVVQAGASLRLSCAASGNIFYGYAMGWYRQAPGKERELVARINWSGSRTYYADSVKGRFTISRDNAKNTVYLQMNSLKPEDTAVYYCNTSTSRVPGNGDYWGQGSQVTVSS | high polyreactivity
QVQLVESGGGLVQAGGSLRLSCAASGFIFRYNAMGWYRQRPGKERELVAVITSGGRTYYADSVKGRFTISRDNAKNTVYLQMNSLKPEDTAFYYCNADSRHRRNYDYWGQGTQVTVSS | high polyreactivity
QVQLQESAGGLVQAGGSLRLRCSASGYISCDASMGWNRQAPGKERELAASITKGSSTNYADSVKGRFTIRDNAKNTVYLQMNSLKPEDTAVCYCAVTYPYWGDYTYWGQGTQVTVSR | low polyreactivity
QVQLVESGGGLVQAGGSLRLSCAASGSIFDRNAMGWYRQAPGKERELVAAISFSGGSTYYADSVKGRFTISRDNAKNTVYLQMNSLKPEDTAVYYCAKAGRYANLPYVYWGQGTQVTVSS | high polyreactivity
QVQLVESGGGLVQAGGSLRLSCAASGRTFDTNPMGWYRQAPGKERELVAVITARGGNTSYADSVKGRFTISRDNAKNTVYLQMNSLKPEDTAVYYCAARVYRAPWTYEEGNYWGQGTQVTVSS | low polyreactivity
QVQLVESGGGLVQAGGSLRLSCAASGFTFLPYVMGWYRQAPGKERELVAGITRTGSTNYADSVKGRFTISRDNAKNTVYLQMNSLKPEDTAVYYCAARLKYWGDYYYWGQGTQVTVSS | low polyreactivity
QVQLVESGGVLVQAGGSIRLSCAASGRIIYKNAMGWYRQAPGKERELVAAITSSGGSTYYADSVKGRFTISRDNAKITVYFQMNSLKPEDTAVYYCAAYAYGRFGKLNYWGQGTQVTVSS | low polyreactivity

Sequence | polyreactivity (PSR sort gate)
QVQLVESGGGLVQAGGSLRLSCAAYGFTFYLNAMGWYRPAPGKERELVAAISYSDGSTYYADSVKGRFTISRDNAKNTVYLQMTSLKPEDTAVYYCAADTTDPGGAYQLMDYWGQGTQVSVSS | low polyreactivity
QVQLVESGGGLVQAGGSLRLSCAASGSTLHLYAMGWYRQAPGKERELVADITSGGDTYYADSVKGRFTISRDNAKNTVYLQMNSLKPEDTAVYYCNAVYEGRYEYAYYYRYDYWGQGTQVTLSS | high polyreactivity
QVQLVESGGGLVQAGGSLRLSCAASGFIFTIYAMGWYRQAPGKERELVAAITWNGGRTYYADSVKGRFTISRDNAKNTVYLQMNSLKAEDTAVYYCAARYGRAYDYWGQGTQVTVSS | high polyreactivity
QVQLVESGGGLVQAGGSLRLSCAASGRTVYVYYMGWYRQAPGKERELVAAISTNYADSVKGRCTISRDNAKNTVYFQMNSLIPEDTAVYYCAADDIHYVIHAYYSTGVDYWGQGTQVTVSS | low polyreactivity
QVQLVESGGGLVQAGGSLRLSCAASGRIFYPNAKGWYIQAPGKETELVAVIRSRGGSTYYADSVKGRFTISRDNAKNTVYLQMNSLKPEDTAVYYCAARWVGRRTKYDYWGQGTQVTVSS | high polyreactivity
QVQLVESGGGLVQAGGSLRLSCAASGLIFKGYVMGWYRQAPGKERELVAAISRRGGSTYYADSVKGRFTISRDNAKNTVYLQMNSLKPEDTAVYYCATEVYDIDGWWGYDYWGQGTQVTVSS | high polyreactivity
QVQLVESGGGLVQAGGSLRLSCAASGYTFSDYAMGWYRQAPGKERELVAAISWSGGSTYYADSVKGRFTISRDNAKNTVYLQMNSLKPEDTAVYYCAAKWYAPDLLYYYWGQGTQVTVSS | low polyreactivity
QVQLVESGGGLVQAGGSLRLSCAASGRNIVGYAMGWYIQAPGKERELVAAITKSGGRTYYADSVKGRFTISRDNAKNTVYLQMNSLKPEDTAVYYCAVLNSKWNEYDYWGQGTQVTVSS | high polyreactivity
QVQIVESGGGLVQAGGSLRLSCAASGSTFKRYAMGWYRQAPGKERELVAAITWRGGSTYYADSVKGRFTISRDNAKNTVYLQMNSLKPEDTAVYYCAARANYFGWPKSYYYWGQGTQVTVSS | high polyreactivity
QVHLVESGGGLDQAGGSLRLSCAASASIFELYAMGWYRQAPGKERELVAVISTGGSTYYADSVKGRFTISRDNAKNTVYLQMNSLKPEDTAVYYCAKGGYVPKLEYWGQGTQVTVSS | high polyreactivity
QVQLVESGGGLVQAGGSLRLSCAASGFTFSRYAMGWYRQAPGKERELVAVISSSGSRTYYADSVKGRFTISRDNAKNTVYLQMNSLTPEDTAVYYCAAKSYTVTGYEYWGQGTQVTVSS | high polyreactivity
LVQLVESGGGLVQAGGSLRLSCAASGYIIGFYVMGWYRQAPGKERELVAVIDYGSDNTYYADSVLGRYTISRDNAKNTVYLQMNSLKPEETAVYYCAAEWYKSNYYDYDTWGQGTQVTVSS | high polyreactivity
QVQLVESGGGLVQAGGSLRLSCAASGITFLRYAMGWYRKSPGKERELVARISSGGRTDYADSVKGRFTISRDNAKNTVYLQMNSLKPEDSAVYYCNATVYEWHTEYDYWGQGTQVTVSS | high polyreactivity
QVQLVESGGGLVQAGGSLRLSCAASGSTFWKYAMGWYRQAPGKERELVAAITRNGGRTFYADSVKGRFTISRDNAKNTVYLQMNSLKPEDTAVYYCNATAGHGYYYWGQGTQVTVSS | high polyreactivity
QVQLVESGGGLVQAGGSLRLSCAASGSIFLGNALGWYRQAPGKERELVAAISRSGGRTYYADSVKGRFTISRDNAKNTVYLQMNSLKPEDTAVYYCAARSYGIYYAKEFYYWGQGTQVTVSS | high polyreactivity
QVQLVESGGGLVQAGGSLRLSCAASGRIYAMGWYRQAPGKERELVAAISYSGGSTYYADSVKGRFTISRDNAKNTVYLQMNSLKPEDTAVYYCAAVIYRGYYYWGQGTQVTVSS | high polyreactivity
